Test results published in patent US20260167710A1 (GlaxoSmithKline, published 2026).

Legend:
human IL-33 [1] = target: T1, human IL-33 (human, Biotinylated in Example 2; the site is not stated.); experiment: cell-based or functional assay
T1 chain: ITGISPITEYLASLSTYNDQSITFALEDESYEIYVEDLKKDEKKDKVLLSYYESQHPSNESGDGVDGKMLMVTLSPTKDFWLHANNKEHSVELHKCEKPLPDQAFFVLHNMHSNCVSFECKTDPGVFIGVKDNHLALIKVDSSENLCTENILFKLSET

cynomolgus IL-33 = target: T2, cynomolgus IL-33 (cynomolgus monkey, UniProt A0A2K5W3I1 112-269); experiment: MSD-SET solution equilibrium titration, 37 C
T2 construct: also called cyno IL-33; cynomolgus monkey IL-33
T2 sequence: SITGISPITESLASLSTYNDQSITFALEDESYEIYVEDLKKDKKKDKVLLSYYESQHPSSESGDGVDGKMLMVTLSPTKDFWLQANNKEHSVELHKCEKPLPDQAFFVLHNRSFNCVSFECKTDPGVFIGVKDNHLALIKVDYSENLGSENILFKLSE

human IL-33 [2] = target: T1, human IL-33; experiment: MSD-SET solution equilibrium titration, 37 C
cFcgRIIIa = target: T3, cFcgRIIIa (cynomolgus monkey); experiment: SPR (ProteOn XPR36), anti-poly-histidine IgG surface, antibody as analyte, equilibrium fit, 25 C
T3 construct: extracellular domain
T3 sequence (Q8SPW2 17-208): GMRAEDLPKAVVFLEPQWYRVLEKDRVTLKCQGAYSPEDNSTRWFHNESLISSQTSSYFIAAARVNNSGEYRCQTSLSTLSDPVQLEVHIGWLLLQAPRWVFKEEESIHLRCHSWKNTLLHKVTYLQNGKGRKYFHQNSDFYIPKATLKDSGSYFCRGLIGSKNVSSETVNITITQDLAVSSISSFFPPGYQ

cFcgRIIa = target: T4, cFcgRIIa (cynomolgus monkey); experiment: as above
T4 construct: extracellular domain; also called recombinant soluble cynomolgus monkey Fc gamma receptor IIa

cFcgRIIb = target: T5, cFcgRIIb (cynomolgus monkey); experiment: as above
T5 construct: extracellular domain

[3] = target: T6, human recombinant neonatal receptor (FcRn) (human, UniProt P55899 24-297; P61769 21-119); experiment: SPR (ProteOn XPR36), antibody captured by protein L, FcRn as analyte, equilibrium fit, pH 6.0, 25 C
T6 construct: also called human FcRn; human recombinant soluble FcRn
T6 sequence (P55899 24-297 limits assumed, chain 1 of 2): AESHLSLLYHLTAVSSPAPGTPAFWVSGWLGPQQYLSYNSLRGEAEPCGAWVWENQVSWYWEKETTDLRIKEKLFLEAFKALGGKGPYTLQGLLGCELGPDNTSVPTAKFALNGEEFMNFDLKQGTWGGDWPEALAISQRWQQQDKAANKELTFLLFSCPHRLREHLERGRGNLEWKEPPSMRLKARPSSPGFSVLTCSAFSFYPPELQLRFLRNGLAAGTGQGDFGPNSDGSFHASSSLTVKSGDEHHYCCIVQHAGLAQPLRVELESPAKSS
T6 sequence (P61769 21-119 limits assumed, chain 2 of 2): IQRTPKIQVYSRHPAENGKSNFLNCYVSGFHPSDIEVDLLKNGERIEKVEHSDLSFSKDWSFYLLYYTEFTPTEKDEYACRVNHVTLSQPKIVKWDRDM

[4] = target: T7, cynomolgus recombinant neonatal receptor (FcRn) (cynomolgus monkey, UniProt Q8SPV9 24-297; Q8SPW0 21-119); experiment: as above
T7 construct: extracellular domain; beta-2-microglobulin is not mentioned; also called cyno FcRn; cynomolgus monkey FcRn
T7 sequence (Q8SPV9 24-297 limits assumed, chain 1 of 2): as the sequence (P55899 24-297 limits assumed, chain 1 of 2) above, with N39D, E44Q, G99S, S189G, S190N, L217M, S269T counted along it
T7 sequence (Q8SPW0 21-119 limits assumed, chain 2 of 2): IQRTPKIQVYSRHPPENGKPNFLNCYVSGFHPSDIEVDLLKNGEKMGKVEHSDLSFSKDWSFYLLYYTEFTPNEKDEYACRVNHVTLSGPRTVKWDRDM

human IL-33 [5] = target: T1, human IL-33; experiment: cell-based or functional assay

B1: 22A06-458 (antibody, human IgG1, kappa)
heavy: QVQLVQSGAEVKKPGASVKVSCKASGYTFISYGMHWVRQAPGQGLEWMGEINPHGGSTSYAQKFKGRVTMTRDTSTSTVYMELSSLRSEDTAVYYCARPSAAYSHYLGIDLWGRGTLVTVSSASTKGPSVFPLAPSSKSTSGGTAALGCLVKDYFPEPVTVSWNSGALTSGVHTFPAVLQSSGLYSLSSVVTVPSSSLGTQTYICNVNHKPSNTKVDKKVEPKSCDKTHTCPPCPAPELLGGPSVFLFPPKPKDTLYITREPEVTCVVVDVSHEDPEVKFNWYVDGVEVHNAKTKPREEQYNSTYRVVSVLTVLHQDWLNGKEYKCKVSNKALPAPIEKTISKAKGQPREPQVYTLPPSRDELTKNQVSLTCLVKGFYPSDIAVEWESNGQPENNYKTTPPVLDSDGSFFLYSKLTVDKSRWQQGNVFSCSVMHEALHNHYTQKSLSLSPGK
light: DIQMTQSPSSVSASVGDRVTITCRASQGISSWLAWYQQKPGKAPKLLIYAASRLQSGVPSRFSGSGSGTDFTLTISSLQPEDFATYYCQQANVFPLTFGGGTKVEIKRTVAAPSVFIFPPSDEQLKSGTASVVCLLNNFYPREAKVQWKVDNALQSGNSQESVTEQDSKDSTYSLSSTLTLSKADYEKHKVYACEVTHQGLSSPVTKSFNRGEC
**Q.** For B1, which “IC50, inhibition of 30 ng/mL IL-33/IL-12 induced IFN-γ secretion from whole blood, pre-complexed, Mean” value (human IL-33 [1]) is on record?
**A.** 3.24 nM

**Q.** What about the “IC50, inhibition of 30 ng/mL IL-33/IL-12 induced IFN-γ secretion from whole blood, pre-complexed, donor #91232” value (human IL-33 [1]) of the same binder?
**A.** 1.47 nM

**Q.** And the “IC50, inhibition of 30 ng/mL IL-33/IL-12 induced IFN-γ secretion from whole blood, pre-complexed, donor #91845” value (human IL-33 [1])?
**A.** 3.88 nM

**Q.** And the “IC50, inhibition of 30 ng/mL IL-33/IL-12 induced IFN-γ secretion from whole blood, pre-complexed, donor #92023” value (human IL-33 [1])?
**A.** 2.48 nM

**Q.** What about the “IC50, inhibition of 30 ng/mL IL-33/IL-12 induced IFN-γ secretion from whole blood, pre-complexed, donor #92187” value (human IL-33 [1]) of the same binder?
**A.** 4.92 nM

**Q.** What about the “IC50, inhibition of 30 ng/mL IL-33/IL-12 induced IFN-γ secretion from whole blood, pre-complexed, donor #92257” value (human IL-33 [1]) of the same binder?
**A.** 1.75 nM

**Q.** And the “IC50, inhibition of 30 ng/mL IL-33/IL-12 induced IFN-γ secretion from whole blood, pre-complexed, donor #92258” value (human IL-33 [1])?
**A.** 4.93 nM

**Q.** And the “pIC50, inhibition of 30 ng/mL IL-33/IL-12 induced IFN-γ secretion from whole blood, pre-complexed, Mean” value (human IL-33 [1])?
**A.** 8.53

**Q.** What about the “pIC50, inhibition of 30 ng/mL IL-33/IL-12 induced IFN-γ secretion from whole blood, pre-complexed, donor #91232” value (human IL-33 [1]) of the same binder?
**A.** 8.83

**Q.** What about the “pIC50, inhibition of 30 ng/mL IL-33/IL-12 induced IFN-γ secretion from whole blood, pre-complexed, donor #91845” value (human IL-33 [1]) of the same binder?
**A.** 8.41

**Q.** And the “pIC50, inhibition of 30 ng/mL IL-33/IL-12 induced IFN-γ secretion from whole blood, pre-complexed, donor #92023” value (human IL-33 [1])?
**A.** 8.6

**Q.** What about the “pIC50, inhibition of 30 ng/mL IL-33/IL-12 induced IFN-γ secretion from whole blood, pre-complexed, donor #92187” value (human IL-33 [1]) of the same binder?
**A.** 8.3

**Q.** And the “pIC50, inhibition of 30 ng/mL IL-33/IL-12 induced IFN-γ secretion from whole blood, pre-complexed, donor #92257” value (human IL-33 [1])?
**A.** 8.75

**Q.** And the “pIC50, inhibition of 30 ng/mL IL-33/IL-12 induced IFN-γ secretion from whole blood, pre-complexed, donor #92258” value (human IL-33 [1])?
**A.** 8.3

**Q.** And the Kd (cynomolgus IL-33)?
**A.** 0.0565 nM

**Q.** What about the Kd (human IL-33 [2]) of the same binder?
**A.** 0.0135 nM

**Q.** And the Kd (cFcgRIIIa)?
**A.** 119 nM

**Q.** And the Kd (cFcgRIIa)?
**A.** 2110 nM

**Q.** And the Kd (cFcgRIIb)?
**A.** 1100 nM

**Q.** What about the Kd [3] of the same binder?
**A.** 25 nM

**Q.** What about the Kd [4] of the same binder?
**A.** 24.7 nM

**Q.** What about the “IC50, inhibition of 10 ng/mL IL-33/IL-12 induced IFN-γ secretion from whole blood, pre-complexed, Mean” value (human IL-33 [5]) of the same binder?
**A.** 1.95 nM

**Q.** And the “IC50, inhibition of 10 ng/mL IL-33/IL-12 induced IFN-γ secretion from whole blood, pre-complexed, donor #91232” value (human IL-33 [5])?
**A.** 0.63 nM

**Q.** And the “IC50, inhibition of 10 ng/mL IL-33/IL-12 induced IFN-γ secretion from whole blood, pre-complexed, donor #91845” value (human IL-33 [5])?
**A.** 2.72 nM

**Q.** And the “IC50, inhibition of 10 ng/mL IL-33/IL-12 induced IFN-γ secretion from whole blood, pre-complexed, donor #92023” value (human IL-33 [5])?
**A.** 1.88 nM

**Q.** And the “IC50, inhibition of 10 ng/mL IL-33/IL-12 induced IFN-γ secretion from whole blood, pre-complexed, donor #92257” value (human IL-33 [5])?
**A.** 0.81 nM

**Q.** What about the “IC50, inhibition of 10 ng/mL IL-33/IL-12 induced IFN-γ secretion from whole blood, pre-complexed, donor #92258” value (human IL-33 [5]) of the same binder?
**A.** 3.72 nM

**Q.** What about the “pIC50, inhibition of 10 ng/mL IL-33/IL-12 induced IFN-γ secretion from whole blood, pre-complexed, Mean” value (human IL-33 [5]) of the same binder?
**A.** 8.8

**Q.** What about the “pIC50, inhibition of 10 ng/mL IL-33/IL-12 induced IFN-γ secretion from whole blood, pre-complexed, donor #91232” value (human IL-33 [5]) of the same binder?
**A.** 9.19

**Q.** What about the “pIC50, inhibition of 10 ng/mL IL-33/IL-12 induced IFN-γ secretion from whole blood, pre-complexed, donor #91845” value (human IL-33 [5]) of the same binder?
**A.** 8.56

**Q.** And the “pIC50, inhibition of 10 ng/mL IL-33/IL-12 induced IFN-γ secretion from whole blood, pre-complexed, donor #92023” value (human IL-33 [5])?
**A.** 8.72

**Q.** And the “pIC50, inhibition of 10 ng/mL IL-33/IL-12 induced IFN-γ secretion from whole blood, pre-complexed, donor #92257” value (human IL-33 [5])?
**A.** 9.08

**Q.** And the “pIC50, inhibition of 10 ng/mL IL-33/IL-12 induced IFN-γ secretion from whole blood, pre-complexed, donor #92258” value (human IL-33 [5])?
**A.** 8.42
